Legend:
HeLa Kyoto [1] = assay: melting temperature (median over replicates), in situ; higher = more thermally stable
HeLa Kyoto [2] = assay: thermal stability score vs G1/S (z-score of summed log2 fold changes over temperatures); higher = more thermally stable than in G1/S
[3] = cell cycle stage: early G1 (4.5 h after nocodazole release)
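Wherever melting temperature (median over replicates), in situ is given: HeLa Kyoto cells synchronized by double thymidine or nocodazole block, proteins quantified by TMT10plex mass spectrometry, three independent biological replicates.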
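Wherever thermal stability score vs G1/S (z-score of summed log2 fold changes over temperatures) is given: synchronized HeLa Kyoto cells, proteins quantified by TMT10plex mass spectrometry, three biological replicates, mitosis taken 0.5 h after nocodazole release, G1/S directly after double thymidine block.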

Sequence of LDHAL6A (chain, as listed by the source): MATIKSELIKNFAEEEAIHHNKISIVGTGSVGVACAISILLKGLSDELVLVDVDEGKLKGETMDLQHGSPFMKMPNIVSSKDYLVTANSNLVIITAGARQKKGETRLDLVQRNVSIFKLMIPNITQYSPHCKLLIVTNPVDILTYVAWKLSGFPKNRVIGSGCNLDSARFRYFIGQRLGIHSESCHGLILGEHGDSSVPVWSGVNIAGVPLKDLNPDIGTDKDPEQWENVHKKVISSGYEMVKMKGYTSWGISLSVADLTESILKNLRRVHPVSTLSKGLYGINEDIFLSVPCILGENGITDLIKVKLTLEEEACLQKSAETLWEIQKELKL

Row | Substance | melting temperature (HeLa Kyoto [1]; cell cycle stage: G1/S) [°C] | melting temperature (HeLa Kyoto [1]; cell cycle stage: mitosis) [°C] | thermal stability score (HeLa Kyoto [2]; [3]) | thermal stability score (HeLa Kyoto [2]; cell cycle stage: mitosis)
1 | MREIVHIQAGQCGNQIGAKFWEVISDEHGIDPTGSYHGDSDLQLERINVYYNEAAGNKYVPRAILVDLEPGTMDSVRSGPFGQIFRPDNFVFGQSGAGNNWAKGHYTEGAELVDSVLDVVRKESESCDCLQGFQLTHSLGGGTGSGMGTLLISKIREEYPDRIMNTFSVMPSPKVSDTVVEPYNATLSVHQLVENTDETYSIDNEALYDICFRTLKLTTPTYGDLNHLVSATMSGVTTCLRFPGQLNADLRKLAVNMVPFPRLHFFMPGFAPLTSRGSQQYRALTVPELTQQMFDSKNMMAACDPRHGRYLTVAAIFRGRMSMKEVDEQMLNVQNKNSSYFVEWIPNNVKTAVCDIPPRGLKMSATFIGNSTAIQELFKRISEQFTAMFRRKAFLHWYTGEGMDEMEFTEAESNMNDLVSEYQQYQDATADEQGEFEEEEGEDEA [TUBB2A] | 56.7 | 54.9 | -0.598 | -2.95
2 | MEFDCEGLRRLLGKYKFRDLTVEELRNVNVFFPHFKYSMDTYVFKDSSQKDLLNFTGTIPVMYQGNTYNIPIRFWILDSHPFAPPICFLKPTANMGILVGKHVDAQGRIYLPYLQNWSHPKSVIVGLIKEMIAKFQEELPMYSLSSSDEARQVDLLAYIAKITEGVSDTNSKSWANHENKTVNKITVVGGGELGIACTLAISAKGIADRLVLLDLSEGTKGATMDLEIFNLPNVEISKDLSASAHSKVVIFTVNSLGSSQSYLDVVQSNVDMFRALVPALGHYSQHSVLLVASQPVEIMTYVTWKLSTFPANRVIGIGCNLDSQRLQYIITNVLKAQTSGKEVWVIGEQGEDKVLTWSGQEEVVSHTSQVQLSNRAMELLRVKGQRSWSVGLSVADMVDSIVNNKKKVHSVSALAKGYYDINSEVFLSLPCILGTNGVSEVIKTTLKEDTVTEKLQSSASSIHSLQQQLKL [UEVLD] | 49.9 | 50.1 | -0.401 | 0.298
3 | MSSVQSQQEQLSQSDPSPSPNSCSSFELIDMDAGSLYEPVSPHWFYCKIIDSKETWIPFNSEDSQQLEEAYSSGKGCNGRVVPTDGGRYDVHLGERMRYAVYWDELASEVRRCTWFYKGDKDNKYVPYSESFSQVLEETYMLAVTLDEWKKKLESPNREIIILHNPKLMVHYQPVAGSDDWGSTPTEQGRPRTVKRGVENISVDIHCGEPLQIDHLVFVVHGIGPACDLRFRSIVQCVNDFRSVSLNLLQTHFKKAQENQQIGRVEFLPVNWHSPLHSTGVDVDLQRITLPSINRLRHFTNDTILDVFFYNSPTYCQTIVDTVASEMNRIYTLFLQRNPDFKGGVSIAGHSLGSLILFDILTNQKDSLGDIDSEKDSLNIVMDQGDTPTLEEDLKKLQLSEFFDIFEKEKVDKEALALCTDRDLQEIGIPLGPRKKILNYFSTRKNSMGIKRPAPQPASGANIPKESEFCSSSNTRNGDYLDVGIGQVSVKYPRLIYKPEIFFAFGSPIGMFLTVRGLKRIDPNYRFPTCKGFFNIYHPFDPVAYRIEPMVVPGVEFEPMLIPHHKGRKRMHLELREGLTRMSMDLKNNLLGSLRMAWKSFTRAPYPALQASETPEETEAEPESTSEKPSDVNTEETSVAVKEEVLPINVGMLNGGQRIDYVLQEKPIESFNEYLFALQSHLCYWESEDTVLLVLKEIYQTQGIFLDQPLQ [DDHD2] | 55.4 | 54.7 | 1.25 | 0.742
4 | MREYKLVVLGSGGVGKSALTVQFVQGIFVEKYDPTIEDSYRKQVEVDAQQCMLEILDTAGTEQFTAMRDLYMKNGQGFALVYSITAQSTFNDLQDLREQILRVKDTDDVPMILVGNKCDLEDERVVGKEQGQNLARQWNNCAFLESSAKSKINVNEIFYDLVRQINRKTPVPGKARKKSSCQLL [RAP1B] | 58.5 | 58.5 | -0.701 | -1.33
5 | MAFSQVQCLDDNHVNWRSSESKPEFFYSEEQRLALEALVARGRDAFYEVLKRENIRDFLSELELKRILETIEVYDPGSEDPRGTGPSQGPEDNGVGDGEEASGADGVPIEAEPLPSLEYWPQKSDRSIPQLDLGWPDTIAYRGVTRASVYMQPPIDGQAHIKEVVRKMISQAQKVIAVVMDMFTDVDIFKDLLDAGFKRKVAVYIIVDESNVKYFLHMCERACMHLGHLKNLRVRSSGGTEFFTRSATKFKGALAQKFMFVDGDRAVCGSYSFTWSAARTDRNVISVLSGQVVEMFDRQFQELYLMSHSVSLKGIPMEKEPEPEPIVLPSVVPLVPAGTVAKKLVNPKYALVKAKSVDEIAKISSEKQEAKKPLGLKGPALAEHPGELPELLPPIHPGLLHLERANMFEYLPTWVEPDPEPGSDILGYINIIDPNIWNPQPSQMNRIKIRDTSQASAQHQLWKQSQDSRPRPEPCPPPEPSAPQDGVPAENGLPQGDPEPLPPVPKPRTVPVADVLARDSSDIGWVLELPKEEAPQNGTDHRLPRMAGPGHAPLQRQLSVTQDDPESLGVGLPNGLDGVEEEDDDDYVTLSDQDSHSGSSGRGPGPRRPSVASSVSEEYFEVREHSVPLRRRHSEQVANGPTPPPRRQLSAPHITRGTFVGPQGGSPWAQSRGREEADALKRMQAQRSTDKEAQGQQFHHHRVPASGTRDKDGFPGPPRYRSAADSVQSSTRNAGPAMAGPHHWQAKGGQVPRLLPDPGSPRLAQNARPMTDGRATEEHPSPFGIPYSKLSQSKHLKARTGGSQWASSDSKRRAQAPRDRKDP [FAM83G] | 51.3 | – | 1.03 | 0.873
6 | MAACRALKAVLVDLSGTLHIEDAAVPGAQEALKRLRGASVIIRFVTNTTKESKQDLLERLRKLEFDISEDEIFTSLTAARSLLERKQVRPMLLVDDRALPDFKGIQTSDPNAVVMGLAPEHFHYQILNQAFRLLLDGAPLIAIHKARYYKRKDGLALGPGPFVTALEYATDTKATVVGKPEKTFFLEALRGTGCEPEEAVMIGDDCRDDVGGAQDVGMLGILVKTGKYRASDEEKINPPPYLTCESFPHAVDHILQHLL [HDHD2] | 57.3 | 59 | -2.07 | -2.57
7 | MGLEAQRLPGAEEAPVRVALRVRPLLPKELLHGHQSCLQVEPGLGRVTLGRDRHFGFHVVLAEDAGQEAVYQACVQPLLEAFFEGFNATVFAYGQTGSGKTYTMGEASVASLLEDEQGIVPRAMAEAFKLIDENDLLDCLVHVSYLEVYKEEFRDLLEVGTASRDIQLREDERGNVVLCGVKEVDVEGLDEVLSLLEMGNAARHTGATHLNHLSSRSHTVFTVTLEQRGRAPSRLPRPAPGQLLVSKFHFVDLAGSERVLKTGSTGERLKESIQINSSLLALGNVISALGDPQRRGSHIPYRDSKITRILKDSLGGNAKTVMIACVSPSSSDFDETLNTLNYASRAQNIRNRATVNWRPEAERPPEETASGARGPPRHRSETRIIHRGRRAPGPATASAAAAMRLGAECARYRACTDAAYSLLRELQAEPGLPGAAARKVRDWLCAVEGERSALSSASGPDSGIESASVEDQAAQGAGGRKEDEGAQQLLTLQNQVARLEEENRDFLAALEDAMEQYKLQSDRLREQQEEMVELRLRLELVRPGWGGPRLLNGLPPGSFVPRPHTAPLGGAHAHVLGMVPPACLPGDEVGSEQRGEQVTNGREAGAELLTEVNRLGSGSSAASEEEEEEEEPPRRTLHLRRNRISNCSQRAGARPGSLPERKGPELCLEELDAAIPGSRAVGGSKARVQARQVPPATASEWRLAQAQQKIRELAINIRMKEELIGELVRTGKAAQALNRQHSQRIRELEQEAEQVRAELSEGQRQLRELEGKELQDAGERSRLQEFRRRVAAAQSQVQVLKEKKQATERLVSLSAQSEKRLQELERNVQLMRQQQGQLQRRLREETEQKRRLEAEMSKRQHRVKELELKHEQQQKILKIKTEEIAAFQRKRRSGSNGSVVSLEQQQKIEEQKKWLDQEMEKVLQQRRALEELGEELHKREAILAKKEALMQEKTGLESKRLRSSQALNEDIVRVSSRLEHLEKELSEKSGQLRQGSAQSQQQIRGEIDSLRQEKDSLLKQRLEIDGKLRQGSLLSPEEERTLFQLDEAIEALDAAIEYKNEAITCRQRVLRASASLLSQCEMNLMAKLSYLSSSETRALLCKYFDKVVTLREEQHQQQIAFSELEMQLEEQQRLVYWLEVALERQRLEMDRQLTLQQKEHEQNMQLLLQQSRDHLGEGLADSRRQYEARIQALEKELGRYMWINQELKQKLGGVNAVGHSRGGEKRSLCSEGRQAPGNEDELHLAPELLWLSPLTEGAPRTREETRDLVHAPLPLTWKRSSLCGEEQGSPEELRQREAAEPLVGRVLPVGEAGLPWNFGPLSKPRRELRRASPGMIDVRKNPL [KIF7] | 52.4 | 51.4 | 1.88 | 2.73
8 | MADVINVSVNLEAFSQAISAIQALRSSVSRVFDCLKDGMRNKETLEGREKAFIAHFQDNLHSVNRDLNELERLSNLVGKPSENHPLHNSGLLSLDPVQDKTPLYSQLLQAYKWSNKLQYHAGLASGLLNQQSLKRSANQMGVSAKRRPKAQPTTLVLPPQYVDDVISRIDRMFPEMSIHLSRPNGTSAMLLVTLGKVLKVIVVMRSLFIDRTIVKGYNENVYTEDGKLDIWSKSNYQVFQKVTDHATTALLHYQLPQMPDVVVRSFMTWLRSYIKLFQAPCQRCGKFLQDGLPPTWRDFRTLEAFHDTCRQ [MED27] | 48.5 | – | -0.132 | 0.247
9 | MRSPVRDLARNDGEESTDRTPLLPGAPRAEAAPVCCSARYNLAILAFFGFFIVYALRVNLSVALVDMVDSNTTLEDNRTSKACPEHSAPIKVHHNQTGKKYQWDAETQGWILGSFFYGYIITQIPGGYVASKIGGKMLLGFGILGTAVLTLFTPIAADLGVGPLIVLRALEGLGEGVTFPAMHAMWSSWAPPLERSKLLSISYAGAQLGTVISLPLSGIICYYMNWTYVFYFFGTIGIFWFLLWIWLVSDTPQKHKRISHYEKEYILSSLRNQLSSQKSVPWVPILKSLPLWAIVVAHFSYNWTFYTLLTLLPTYMKEILRFNVQENGFLSSLPYLGSWLCMILSGQAADNLRAKWNFSTLCVRRIFSLIGMIGPAVFLVAAGFIGCDYSLAVAFLTISTTLGGFCSSGFSINHLDIAPSYAGILLGITNTFATIPGMVGPVIAKSLTPDNTVGEWQTVFYIAAAINVFGAIFFTLFAKGEVQNWALNDHHGHRH [SLC17A5] | 57.3 | 57.6 | -3.39 | -4.02
10 | MRLVILDNYDLASEWAAKYICNRIIQFKPGQDRYFTLGLPTGSTPLGCYKKLIEYHKNGHLSFKYVKTFNMDEYVGLPRNHPESYHSYMWNNFFKHIDIDPNNAHILDGNAADLQAECDAFENKIKEAGGIDLFVGGIGPDGHIAFNEPGSSLVSRTRLKTLAMDTILANAKYFDGDLSKVPTMALTVGVGTVMDAREVMILITGAHKAFALYKAIEEGVNHMWTVSAFQQHPRTIFVCDEDATLELRVKTVKYFKGLMHVHNKLVDPLFSMKDGN [GNPDA2] | 58.1 | 58.3 | -0.549 | -0.194
11 | LDHAL6A | 61.6 | – | -1.33 | -1.23
12 | MAYHSGYGAHGSKHRARAAPDPPPLFDDTSGGYSSQPGGYPATGADVAFSVNHLLGDPMANVAMAYGSSIASHGKDMVHKELHRFVSVSKLKYFFAVDTAYVAKKLGLLVFPYTHQNWEVQYSRDAPLPPRQDLNAPDLYIPTMAFITYVLLAGMALGIQKRFSPEVLGLCASTALVWVVMEVLALLLGLYLATVRSDLSTFHLLAYSGYKYVGMILSVLTGLLFGSDGYYVALAWTSSALMYFIVRSLRTAALGPDSMGGPVPRQRLQLYLTLGAAAFQPLIIYWLTFHLVR [YIF1A] | 57.2 | – | -0.13 | -2.04

Source: the supplement of paper PMC5998384
